In the experiment the target is T1, His-DDA3 (UniProt Q6PGN9 1-363).
T1 sequence (looked up): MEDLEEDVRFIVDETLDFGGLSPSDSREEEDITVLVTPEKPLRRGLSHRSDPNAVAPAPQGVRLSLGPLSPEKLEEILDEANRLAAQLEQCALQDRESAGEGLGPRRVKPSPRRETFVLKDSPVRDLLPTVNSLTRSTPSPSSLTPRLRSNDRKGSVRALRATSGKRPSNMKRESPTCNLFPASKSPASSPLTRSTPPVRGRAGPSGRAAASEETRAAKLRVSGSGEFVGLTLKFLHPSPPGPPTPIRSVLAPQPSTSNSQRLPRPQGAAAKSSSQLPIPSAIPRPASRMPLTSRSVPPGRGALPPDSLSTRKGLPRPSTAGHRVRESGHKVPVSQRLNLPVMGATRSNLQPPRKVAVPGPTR
As to the kind of experiment: pull-down.

B1: GST-EB1 (natural protein, UniProt Q15691 1-268, looked up)
chain: MAVNVYSTSVTSDNLSRHDMLAWINESLQLNLTKIEQLCSGAAYCQFMDMLFPGSIALKKVKFQAKLEHEYIQNFKILQAGFKRMGVDKIIPVDKLVKGKFQDNFEFVQWFKKFFDANYDGKDYDPVAARQGQETAVAPSLVAPALNKPKKPLTSSSAAPQRPISTQRTAAAPKAGPGVVRKNPGVGNGDDEAAELMQQVNVLKLTVEDLEKERDFYFGKLRNIELICQENEGENDPVLQRIVDILYATDEGFVIPDEGGPQEEQEEY
With B1, the binding result was “binds”.

(Values after publication PMC3647168 (Scientific Reports, 2013).)
